According to patent US20240270857A1 (CHIA TAI TIANQING PHARMACEUTICAL GROUP, published 2024):
Read-outs that look alike come from different tables or passages of the source.

T1: cynomolgus IL-36R overexpressed on 293T-CynoIL36R-NFκB cells (cynomolgus monkey)
T1 chain: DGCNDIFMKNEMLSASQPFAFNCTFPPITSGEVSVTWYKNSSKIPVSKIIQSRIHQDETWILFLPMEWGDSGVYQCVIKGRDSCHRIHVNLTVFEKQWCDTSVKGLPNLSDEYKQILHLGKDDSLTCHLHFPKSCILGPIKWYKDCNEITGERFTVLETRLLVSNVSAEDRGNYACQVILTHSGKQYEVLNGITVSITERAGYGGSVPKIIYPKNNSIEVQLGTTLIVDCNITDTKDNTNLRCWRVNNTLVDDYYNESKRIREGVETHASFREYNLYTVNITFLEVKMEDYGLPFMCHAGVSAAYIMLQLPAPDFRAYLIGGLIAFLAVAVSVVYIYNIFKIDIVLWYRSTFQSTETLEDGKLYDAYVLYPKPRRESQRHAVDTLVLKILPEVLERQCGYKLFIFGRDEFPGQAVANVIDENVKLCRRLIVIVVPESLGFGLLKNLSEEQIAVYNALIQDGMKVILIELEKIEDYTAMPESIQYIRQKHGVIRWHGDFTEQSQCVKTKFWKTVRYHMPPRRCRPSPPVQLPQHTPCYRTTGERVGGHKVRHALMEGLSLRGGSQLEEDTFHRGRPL

T2: IL-36R naturally expressed on OVCAR8 cells and on normal human epidermal keratinocytes (NHK cells) (human, UniProt Q9HB29 20-575)
T2 sequence (looked up): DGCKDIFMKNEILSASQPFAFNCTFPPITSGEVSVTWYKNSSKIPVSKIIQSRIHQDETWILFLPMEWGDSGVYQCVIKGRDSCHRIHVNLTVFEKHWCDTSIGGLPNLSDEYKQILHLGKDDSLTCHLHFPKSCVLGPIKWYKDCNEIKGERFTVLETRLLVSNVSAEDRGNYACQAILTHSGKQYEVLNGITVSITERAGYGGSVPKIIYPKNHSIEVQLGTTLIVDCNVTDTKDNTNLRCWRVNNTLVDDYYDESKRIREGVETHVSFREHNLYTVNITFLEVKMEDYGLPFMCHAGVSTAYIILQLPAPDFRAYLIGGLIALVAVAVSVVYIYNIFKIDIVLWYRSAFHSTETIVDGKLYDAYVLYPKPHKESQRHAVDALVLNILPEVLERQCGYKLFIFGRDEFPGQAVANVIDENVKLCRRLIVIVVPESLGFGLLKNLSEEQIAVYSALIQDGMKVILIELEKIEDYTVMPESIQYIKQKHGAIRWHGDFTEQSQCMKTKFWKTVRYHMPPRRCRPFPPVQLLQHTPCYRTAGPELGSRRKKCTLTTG

T3: human IL-36R overexpressed on 293T-hIL36R-NFκB cells (human, UniProt Q9HB29 20-575)
T3 sequence: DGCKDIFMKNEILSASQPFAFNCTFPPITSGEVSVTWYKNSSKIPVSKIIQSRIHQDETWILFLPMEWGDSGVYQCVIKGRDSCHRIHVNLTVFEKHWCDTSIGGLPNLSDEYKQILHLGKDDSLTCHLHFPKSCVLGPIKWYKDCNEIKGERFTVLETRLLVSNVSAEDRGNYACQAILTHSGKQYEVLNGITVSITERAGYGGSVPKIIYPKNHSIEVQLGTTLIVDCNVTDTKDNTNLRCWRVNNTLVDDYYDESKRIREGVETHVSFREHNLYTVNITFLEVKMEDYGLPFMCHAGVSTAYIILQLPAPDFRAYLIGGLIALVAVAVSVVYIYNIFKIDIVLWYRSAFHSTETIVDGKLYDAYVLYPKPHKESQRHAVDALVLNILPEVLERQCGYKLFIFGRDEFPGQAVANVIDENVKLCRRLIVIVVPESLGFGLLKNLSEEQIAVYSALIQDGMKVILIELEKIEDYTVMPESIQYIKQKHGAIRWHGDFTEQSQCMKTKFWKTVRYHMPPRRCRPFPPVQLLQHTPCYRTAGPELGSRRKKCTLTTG

T4: Human IL-1Rrp2/IL-1R6 protein, His Tag (ACROBiosystems, IL2-H52H6) (human, UniProt Q9HB29 20-335)
T4 construct: Bought protein; the soluble protein is likely only the extracellular part; also called hIL-36R; human IL36R antigen; not shown: His tag
T4 sequence: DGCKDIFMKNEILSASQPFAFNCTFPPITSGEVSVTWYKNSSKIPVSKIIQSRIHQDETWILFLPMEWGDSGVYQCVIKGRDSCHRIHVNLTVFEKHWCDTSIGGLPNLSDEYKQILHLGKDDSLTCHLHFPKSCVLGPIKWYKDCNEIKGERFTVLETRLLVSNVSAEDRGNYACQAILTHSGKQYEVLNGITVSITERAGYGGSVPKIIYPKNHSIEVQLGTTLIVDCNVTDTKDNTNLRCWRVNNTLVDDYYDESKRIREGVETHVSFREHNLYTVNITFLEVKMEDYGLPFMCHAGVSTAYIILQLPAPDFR


Experiments:
[1] = molecular target: T1, cynomolgus IL-36R overexpressed on …; assay: cell-based or functional assay
[2] = molecular target: T1, cynomolgus IL-36R overexpressed on …; assay: cell-based or functional assay
[3] = molecular target: T2, IL-36R naturally expressed on OVCAR8 …; assay: cell-based or functional assay
[4] = molecular target: T3, human IL-36R overexpressed on …; assay: cell-based or functional assay
[5] = molecular target: T3, human IL-36R overexpressed on …; assay: FACS on 293T-hIL36R-NFκB cells, ratio of MFI to background MFI
Description: After the cells was washed with PBS, the cells were resuspended with 100 μL of PBS and then the fluorescence signal was detected using a flow cytometer (BD, Accuri C6). […] The ratio was the ratio of mean fluorescence intensity (MFI) of the experimental group/the background MFI, and the resulting data were analyzed using GraphPad Prism.

[6] = molecular target: T4, Human IL-1Rrp2/IL-1R6 protein, His Tag …; assay: BLI (ForteBio Octet), antibody on ProA sensor, 1:1 model
Description: The affinity of anti-IL-36R antibodies to CynoIL36R-ECD mFc and human IL-1Rrp2/IL-IR6 protein, His Tag (ACROBiosystems, IL2-H52H6) was measured by a ForteBio molecular interaction instrument. […] And then the biosensor was used to bind CynoIL36R-ECD mFc or human IL-1Rrp2/IL-1R6 protein, His Tag which was diluted by a gradient (the initial concentration was 200 nM, 2-fold gradient dilution), the response signals were detected in real time using a Fortebio molecular interaction instrument (SARTORIUS, octet red 96e), and association and dissociation curves were obtained. After the completion of dissociation in each cycle, the biosensor was regenerated for the next capture; the procedure was repeated until the affinity of the different anti-IL-36R antibodies for IL-36R was determined. The resulting data were analyzed by Fortebio Data Analysis 11.0 software in a 1:1 (Langmuir) binding model to determine kₐ (kₒₙ) and kd (koff) values, and the dissociation constant KD was calculated by KD=kd/kₐ. The detection method essentially followed the manufacturer's recommendations, and more information could be found at www.fortebio.com.

[7] = molecular target: T2, IL-36R naturally expressed on OVCAR8 …; assay: cell-based or functional assay; remark: listed apart in the source
[8] = molecular target: T3, human IL-36R overexpressed on …; assay: cell-based or functional assay; remark: listed apart in the source
[9] = molecular target: T3, human IL-36R overexpressed on …; assay: cell-based or functional assay; remark: listed apart in the source
[10] = molecular target: T3, human IL-36R overexpressed on …; assay: cell-based or functional assay; remark: listed apart in the source

IC50; NFκB-luciferase reporter in 293T-CynoIL36R-NFκB cells stimulated with hIL36β, inhibition rate % [1]	IC50; NFκB-luciferase reporter in 293T-CynoIL36R-NFκB cells stimulated with hIL36α, inhibition rate % [2]	IC50; IL-8 production of NHK cells stimulated with hIL36α, inhibition rate % [3]	IC50; NFκB-luciferase reporter in 293T-hIL36R-NFκB cells stimulated with hIL36β, inhibition rate % [4]	EC50 [5]	Kd [6]	koff [6]	kon [6]	IC50; IL-8 production of OVCAR8 cells stimulated with hIL36β, inhibition rate % [7]	IC50; NFκB-luciferase reporter in 293T-hIL36R-NFκB cells stimulated with hIL36α, inhibition rate % [8]	IC50; NFκB-luciferase reporter in 293T-hIL36R-NFκB cells stimulated with hIL36β, inhibition rate % [9]	IC50; NFκB-luciferase reporter in 293T-hIL36R-NFκB cells stimulated with hIL36γ, inhibition rate % [10]	Binder
3.6 nM	3.32 nM	0.159 nM	7.51 nM	2.52 nM								chimeric 72C1 antibody (antibody, human IgG4 S228P, kappa, Mouse variable regions on human IgG4 / kappa; also called xi72C1) heavy: not shown light: EILLTQSPAIMSATLGEKVTMSCRASSNVRYMYWYQLKSGASPKLWIYLTSNLASGVPARFSGSGSGTSYSLTISSVEAEDAATYFCQQFTTSPYTFGGGTKLEIKRTVAAPSVFIFPPSDEQLKSGTASVVCLLNNFYPREAKVQWKVDNALQSGNSQESVTEQDSKDSTYSLSSTLTLSKADYEKHKVYACEVTHQGLSSPVTKSFNRGEC
				0.886 nM	0.66 nM	7e-05 s⁻¹	106000 M⁻¹ s⁻¹	0.113 nM	3.25 nM	2.79 nM	~13.2 nM	chimeric 84C4 antibody (antibody, human IgG4 S228P, kappa, Mouse variable regions on human IgG4 / kappa; also called xi84C4) heavy: not shown light: DILMTQSPSSLSASLGERVSLTCRASQDIGNALNWLQQAPDGTIKRLIYATSSLDPGVPKRFSGSRSGSDYSLTISSLASEDFVYYYCLQYASSPYTFGGGTKLEIKRTVAAPSVFIFPPSDEQLKSGTASVVCLLNNFYPREAKVQWKVDNALQSGNSQESVTEQDSKDSTYSLSSTLTLSKADYEKHKVYACEVTHQGLSSPVTKSFNRGEC
56.3 nM	27.7 nM	0.0741 nM	5.02 nM	1.33 nM	0.22 nM	1.29e-05 s⁻¹	58600 M⁻¹ s⁻¹	0.0861 nM	6.09 nM	2.45 nM	~13.2 nM	BI655130 (antibody, human IgG1, kappa, L234A L235A, also called Spesolimab) heavy: not shown light: QIVLTQSPGTLSLSPGERATMTCTASSSVSSSYFHWYQQKPGQAPRLWIYRTSRLASGVPDRFSGSGSGTDFTLTISRLEPEDAATYYCHQFHRSPLTFGAGTKLEIKRTVAAPSVFIFPPSDEQLKSGTASVVCLLNNFYPREAKVQWKVDNALQSGNSQESVTEQDSKDSTYSLSSTLTLSKADYEKHKVYACEVTHQGLSSPVTKSFNRGEC
